B1: Fab molecule clone 1:5 (Fab, V domains shown)
VH: VQLLEQSGAEVRKPGSSVKVSCKASGGTFSGHVITWVRQAPGQGLEWMGESIPIFGSANYAQNYAQKFRDRVSIIADESTSTSFIELSNLRSDDTAVYYCARDPPRYCSAGRCYPGFFQQWGQGTLVTVSS
VL: AELTQSPGTLSLSPGERATLSCRASQSVSSNYLAWYQQRPGQAPRLLIYGASSRATGIPDRFSGSGSGTDFTLTISRLEPEDFAVYYCQLYGNSRWTFGQGTKVEIK
B2: Fab molecule clone L3 (Fab, V domains shown)
VH: EVQLLESGGGVVQPGRSLRLSCAASGFTFKTYGMHWVRQAPGKGLEWVAGISFDGSNQYYADSVKGRFIVSRDNSRDTVFLQMSSLRLEDTAVYYCATEGSPFGSIKGRYYLENWGQGTLVTVSS
VL: AELTQSPATLSVSPGERASLSCRASQSVGNNLAWYQQKPGQAPRLLIYGGNTRATGTPDRFSGSGSGTEFTLTISSLQSEDFAVYFCQHYSTWPLTFGGGTKVEFK

How the values were obtained:
tetanus toxoid [1] = target: T1, tetanus toxoid (UniProt P04958 2-1315); assay: ELISA, coated tetanus toxoid 1 ug/ml
T1 construct: also called TT

tetanus toxoid [2] = target: T1, tetanus toxoid; assay: ELISA, […] (100 ug/ml) […]

T1 sequence (P04958 2-457 limits assumed, chain 1 of 2): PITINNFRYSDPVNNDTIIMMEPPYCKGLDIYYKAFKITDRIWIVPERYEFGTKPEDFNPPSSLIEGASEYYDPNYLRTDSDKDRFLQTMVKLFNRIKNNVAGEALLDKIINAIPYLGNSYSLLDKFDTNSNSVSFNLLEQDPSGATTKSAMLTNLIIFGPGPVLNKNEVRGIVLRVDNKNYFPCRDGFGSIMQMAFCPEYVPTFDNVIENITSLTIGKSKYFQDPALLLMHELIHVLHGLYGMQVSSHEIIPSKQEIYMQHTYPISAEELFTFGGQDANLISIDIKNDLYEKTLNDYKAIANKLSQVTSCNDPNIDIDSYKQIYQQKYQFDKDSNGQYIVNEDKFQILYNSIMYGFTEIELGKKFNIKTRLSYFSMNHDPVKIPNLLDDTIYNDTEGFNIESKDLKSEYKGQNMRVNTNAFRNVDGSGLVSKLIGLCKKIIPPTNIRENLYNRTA
T1 sequence (P04958 458-1315 limits assumed, chain 2 of 2): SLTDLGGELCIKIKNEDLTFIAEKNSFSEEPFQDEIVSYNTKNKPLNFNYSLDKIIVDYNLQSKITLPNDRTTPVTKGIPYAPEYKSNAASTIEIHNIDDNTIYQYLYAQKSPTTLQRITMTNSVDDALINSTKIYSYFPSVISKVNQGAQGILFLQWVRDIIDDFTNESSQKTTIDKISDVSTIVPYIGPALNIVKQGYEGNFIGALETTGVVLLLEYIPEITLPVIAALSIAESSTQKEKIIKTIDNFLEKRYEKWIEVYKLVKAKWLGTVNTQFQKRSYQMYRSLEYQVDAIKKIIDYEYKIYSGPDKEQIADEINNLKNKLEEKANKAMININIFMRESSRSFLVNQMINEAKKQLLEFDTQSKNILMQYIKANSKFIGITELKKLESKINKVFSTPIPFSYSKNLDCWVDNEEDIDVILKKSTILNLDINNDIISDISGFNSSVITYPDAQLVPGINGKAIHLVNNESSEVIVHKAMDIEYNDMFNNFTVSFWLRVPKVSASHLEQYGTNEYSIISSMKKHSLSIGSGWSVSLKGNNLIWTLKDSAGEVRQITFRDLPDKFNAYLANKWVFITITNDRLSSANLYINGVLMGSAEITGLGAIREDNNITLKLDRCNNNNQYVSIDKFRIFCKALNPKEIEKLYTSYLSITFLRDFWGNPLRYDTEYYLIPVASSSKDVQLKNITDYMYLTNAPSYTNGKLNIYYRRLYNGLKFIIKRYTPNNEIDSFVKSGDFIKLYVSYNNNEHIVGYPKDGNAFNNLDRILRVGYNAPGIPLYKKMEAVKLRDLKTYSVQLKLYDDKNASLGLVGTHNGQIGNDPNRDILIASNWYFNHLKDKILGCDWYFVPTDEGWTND

Binder | binding result (tetanus toxoid [1]) | OD405 nm (ELISA reactivity) (tetanus toxoid [2])
B1 | no binding | 
B2 | no binding | 0.313 OD405 nm

Reference: patent US6747136 (KAROLINA INNOVATIONS, dated 2004)
